The results in this text go back to the Human Domainome abundance scans (Beltran et al. 2025).

± gives the uncertainty stated by the source.

The series in a line: abundance fitness (aPCA) (normalised: wild type 0, dead -1); higher = more abundant; growth selection in yeast, the domain comes from the species named. Conditions: Homo sapiens.
The substance “DnaJ homolog subfamily B member 1 L55Q, P25685” returned an abundance fitness of -0.747 ± 0.1.

For “DnaJ homolog subfamily B member 1 L55R, P25685”, the abundance fitness is -0.769 ± 0.069. In the case of “DnaJ homolog subfamily B member 1 L55S, P25685” it was -0.524 ± 0.086; in that of “DnaJ homolog subfamily B member 1 L55T, P25685”, -0.636 ± 0.1; in that of “DnaJ homolog subfamily B member 1 L55V, P25685”, -0.347 ± 0.08. In the case of “DnaJ homolog subfamily B member 1 L55W, P25685” it was -0.932 ± 0.1; in that of “DnaJ homolog subfamily B member 1 L55Y, P25685”, -0.873 ± 0.16; in that of “DnaJ homolog subfamily B member 1 N36A, P25685”, 0.038 ± 0.084. In the case of “DnaJ homolog subfamily B member 1 N36C, P25685” it was 0.124 ± 0.17; in that of “DnaJ homolog subfamily B member 1 N36D, P25685”, -0.221 ± 0.12; in that of “DnaJ homolog subfamily B member 1 N36E, P25685”, -0.174 ± 0.084. As to “DnaJ homolog subfamily B member 1 N36F, P25685”, the abundance fitness is -0.415 ± 0.12. In the case of “DnaJ homolog subfamily B member 1 N36G, P25685” it was -0.029 ± 0.08. As for “DnaJ homolog subfamily B member 1 N36H, P25685”, the figure is 0.002 ± 0.11; as for “DnaJ homolog subfamily B member 1 N36I, P25685”, -0.181 ± 0.13. As for “DnaJ homolog subfamily B member 1 N36K, P25685”, the figure is -0.112 ± 0.085; as for “DnaJ homolog subfamily B member 1 N36L, P25685”, 0.009 ± 0.054; as for “DnaJ homolog subfamily B member 1 N36M, P25685”, 0.035 ± 0.13.

Consider “DnaJ homolog subfamily B member 1 N36P, P25685”, for which the abundance fitness is -0.096 ± 0.086. In the case of “DnaJ homolog subfamily B member 1 N36R, P25685” it was -0.14 ± 0.093; in that of “DnaJ homolog subfamily B member 1 N36S, P25685”, 0.079 ± 0.06. As for “DnaJ homolog subfamily B member 1 N36T, P25685”, the figure is 0.092 ± 0.1.

“DnaJ homolog subfamily B member 1 N36V, P25685” had an abundance fitness of -0.158 ± 0.088. In turn, “DnaJ homolog subfamily B member 1 N36W, P25685” returned an abundance fitness of -0.097 ± 0.099. Turning to “DnaJ homolog subfamily B member 1 N36Y, P25685”, the abundance fitness is -0.195 ± 0.11. In the case of “DnaJ homolog subfamily B member 1 P33A, P25685” it was -0.055 ± 0.075; in that of “DnaJ homolog subfamily B member 1 P33C, P25685”, -0.11 ± 0.1. In the case of “DnaJ homolog subfamily B member 1 P33E, P25685” it was -0.096 ± 0.087; in that of “DnaJ homolog subfamily B member 1 P33F, P25685”, -0.207 ± 0.093. As to “DnaJ homolog subfamily B member 1 P33G, P25685”, the abundance fitness was found to be 0.017 ± 0.064. As for “DnaJ homolog subfamily B member 1 P33H, P25685”, the figure is -0.292 ± 0.15; as for “DnaJ homolog subfamily B member 1 P33I, P25685”, -0.085 ± 0.097. As for “DnaJ homolog subfamily B member 1 P33L, P25685”, the figure is -0.091 ± 0.056. In the case of “DnaJ homolog subfamily B member 1 P33M, P25685” it was 0.039 ± 0.079. Consider “DnaJ homolog subfamily B member 1 P33N, P25685”, for which the abundance fitness was -0.009 ± 0.094.

For “DnaJ homolog subfamily B member 1 P33Q, P25685”, the abundance fitness stood at 0.057 ± 0.1. In the case of “DnaJ homolog subfamily B member 1 P33R, P25685” it was -0.06 ± 0.078; in that of “DnaJ homolog subfamily B member 1 P33S, P25685”, 0.018 ± 0.083; in that of “DnaJ homolog subfamily B member 1 P33V, P25685”, -0.078 ± 0.076.

Substance “DnaJ homolog subfamily B member 1 P33W, P25685” came in with an abundance fitness of -0.455 ± 0.096. Take “DnaJ homolog subfamily B member 1 P33Y, P25685”: the abundance fitness is -0.245 ± 0.11. In the case of “DnaJ homolog subfamily B member 1 P39A, P25685” it was -0.037 ± 0.074.

The substance “DnaJ homolog subfamily B member 1 P39C, P25685” yielded an abundance fitness of -0.016 ± 0.15. As for “DnaJ homolog subfamily B member 1 P39D, P25685”, the figure is -0.339 ± 0.27; as for “DnaJ homolog subfamily B member 1 P39E, P25685”, 0.064 ± 0.097; as for “DnaJ homolog subfamily B member 1 P39F, P25685”, -0.041 ± 0.2.

For “DnaJ homolog subfamily B member 1 P39G, P25685”, the abundance fitness was -0.287 ± 0.16. In the case of “DnaJ homolog subfamily B member 1 P39H, P25685” it was 0.054 ± 0.28; in that of “DnaJ homolog subfamily B member 1 P39I, P25685”, -0.038 ± 0.15; in that of “DnaJ homolog subfamily B member 1 P39K, P25685”, 0.027 ± 0.14. With “DnaJ homolog subfamily B member 1 P39N, P25685”, the abundance fitness was 0.035 ± 0.12. As for “DnaJ homolog subfamily B member 1 P39R, P25685”, the abundance fitness stood at 0.041 ± 0.1.

“DnaJ homolog subfamily B member 1 P39S, P25685” showed an abundance fitness of -0.078 ± 0.069. As for “DnaJ homolog subfamily B member 1 P39T, P25685”, the figure is 0.133 ± 0.13; as for “DnaJ homolog subfamily B member 1 P39V, P25685”, 0.001 ± 0.12; as for “DnaJ homolog subfamily B member 1 P39W, P25685”, 0.026 ± 0.12. As for “DnaJ homolog subfamily B member 1 P39Y, P25685”, the figure is -0.222 ± 0.14; as for “DnaJ homolog subfamily B member 1 P58A, P25685”, -0.081 ± 0.09. “DnaJ homolog subfamily B member 1 P58C, P25685” came in with an abundance fitness of -0.256 ± 0.22. As for “DnaJ homolog subfamily B member 1 P58D, P25685”, the figure is -0.332 ± 0.14; as for “DnaJ homolog subfamily B member 1 P58E, P25685”, -0.149 ± 0.086. In the case of “DnaJ homolog subfamily B member 1 P58F, P25685” it was -0.407 ± 0.25. “DnaJ homolog subfamily B member 1 P58G, P25685” came in with an abundance fitness of -0.238 ± 0.079.

As to “DnaJ homolog subfamily B member 1 P58H, P25685”, the abundance fitness is -0.192 ± 0.19. As for “DnaJ homolog subfamily B member 1 P58I, P25685”, the figure is -0.256 ± 0.16; as for “DnaJ homolog subfamily B member 1 P58K, P25685”, 0.021 ± 0.31; as for “DnaJ homolog subfamily B member 1 P58L, P25685”, -0.163 ± 0.057. As for “DnaJ homolog subfamily B member 1 P58N, P25685”, the figure is -0.306 ± 0.2; as for “DnaJ homolog subfamily B member 1 P58Q, P25685”, -0.18 ± 0.097; as for “DnaJ homolog subfamily B member 1 P58R, P25685”, -0.11 ± 0.073. In the case of “DnaJ homolog subfamily B member 1 P58S, P25685” it was -0.112 ± 0.089. “DnaJ homolog subfamily B member 1 P58T, P25685”: the abundance fitness was -0.143 ± 0.14. In turn, “DnaJ homolog subfamily B member 1 P58V, P25685” returned an abundance fitness of -0.191 ± 0.094. In the case of “DnaJ homolog subfamily B member 1 P58W, P25685” it was -0.236 ± 0.085; in that of “DnaJ homolog subfamily B member 1 P58Y, P25685”, -0.229 ± 0.13; in that of “DnaJ homolog subfamily B member 1 Q7A, P25685”, -0.386 ± 0.12.

“DnaJ homolog subfamily B member 1 Q7C, P25685” registered an abundance fitness of 0.031 ± 0.13. As for “DnaJ homolog subfamily B member 1 Q7E, P25685”, the figure is -0.547 ± 0.13. In the case of “DnaJ homolog subfamily B member 1 Q7F, P25685” it was 0.066 ± 0.11. In the case of “DnaJ homolog subfamily B member 1 Q7G, P25685” it was -0.315 ± 0.21; in that of “DnaJ homolog subfamily B member 1 Q7H, P25685”, -0.246 ± 0.15. In the case of “DnaJ homolog subfamily B member 1 Q7I, P25685”, the abundance fitness was -0.144 ± 0.17. In the case of “DnaJ homolog subfamily B member 1 Q7K, P25685” it was -0.014 ± 0.12. As for “DnaJ homolog subfamily B member 1 Q7L, P25685”, the figure is -0.049 ± 0.057; as for “DnaJ homolog subfamily B member 1 Q7N, P25685”, 0.019 ± 0.13; as for “DnaJ homolog subfamily B member 1 Q7P, P25685”, -0.567 ± 0.088.

Substance “DnaJ homolog subfamily B member 1 Q7R, P25685” gave an abundance fitness of -0.185 ± 0.071. As for “DnaJ homolog subfamily B member 1 Q7S, P25685”, the figure is -0.286 ± 0.081; as for “DnaJ homolog subfamily B member 1 Q7T, P25685”, -0.008 ± 0.078. In the case of “DnaJ homolog subfamily B member 1 Q7V, P25685” it was -0.307 ± 0.087; in that of “DnaJ homolog subfamily B member 1 Q7W, P25685”, -0.207 ± 0.15.
